Values quoted from earlier work, collected in PMC7652413.

Biological target: SARS-CoV-2 spike protein RBD (Severe acute respiratory syndrome coronavirus 2) (UniProt P0DTC2)
Experiment: SPR

CD147 (basigin) (from UniProt P35613)
Kd: 185 nM
